# According to PMC5850324, “Interactions between the Hepatitis C Virus Nonstructural 2 Protein and Host Adaptor Proteins 1 and 4 Orchestrate Virus Release” (mBio, 2018):
# B1: GLuc2-NS2 (hepatitis C virus nonstructural 2 protein, wild type) [hepatitis C virus (J6/JFH genome)] / GLuc1-tagged μ subunit of the AP-1B complex [not stated] (parent)
# chain 1: YDASVHGQIGAALLVLITLFTLTPGYKTLLSRFLWWLCYLLTLAEAMVQEWAPPMQVRGGRDGIIWAVAIFCPGVVFDITKWLLAVLGPAYLLKGALTRVPYFVRAHALLRMCTMVRHLAGGRYVQMVLLALGRWTGTYIYDHLTPMSDWAANGLRDLAVAVEPIIFSPMEKKVIVWGAETAACGDILHGLPVSARLGREVLLGPADGYTSKGWSLL
# chain 2: MSASAVFILDVKGKPLISRNYKGDVAMSKIEHFMPLLVQREEEGALAPLLSHGQVHFLWIKHSNLYLVATTSKNANASLVYSFLYKTIEVFCEYFKELEEESIRDNFVIVYELLDELMDFGFPQTTDSKILQEYITQQSNKLETGKSRVPPTVTNAVSWRSEGIKYKKNEVFIDVIESVNLLVNANGSVLLSEIVGTIKLKVFLSGMPELRLGLNDRVLFELTGRSKNKSVELEDVKFHQCVRLSRFDNDRTISFIPPDGDFELMSYRLSTQVKPLIWIESVIEKFSHSRVEIMVKAKGQFKKQSVANGVEISVPVPSDADSPRFKTSVGSAKYVPERNVVIWSIKSFPGGKEYLMRAHFGLPSVEKEEVEGRPPIGVKFEIPYFTVSGIQVRYMKIIEKSGYQALPWVRYITQSGDYQLRTS
# B2: GLuc2-NS2 (hepatitis C virus nonstructural 2 protein, wild type) [hepatitis C virus (J6/JFH genome)] / GLuc1-tagged μ subunit of the AP-1A complex [not stated] (parent)
# chain 1: B1 chain 1
# chain 2: MSASAVYVLDLKGKVLICRNYRGDVDMSEVEHFMPILMEKEEEGMLSPILAHGGVRFMWIKHNNLYLVATSKKNACVSLVFSFLYKVVQVFSEYFKELEEESIRDNFVIIYELLDELMDFGYPQTTDSKILQEYITQEGHKLETGAPRPPATVTNAVSWRSEGIKYRKNEVFLDVIESVNLLVSANGNVLRSEIVGSIKMRVFLSGMPELRLGLNDKVLFDNTGRGKSKSVELEDVKFHQCVRLSRFENDRTISFIPPDGEFELMSYRLNTHVKPLIWIESVIEKHSHSRIEYMIKAKSQFKRRSTANNVEIHIPVPNDADSPKFKTTVGSVKWVPENSEIVWSIKSFPGGKEYLMRAHFGLPSVEAEDKEGKPPISVKFEIPYFTTSGIQVRYLKIIEKSGYQALPWVRYITQNGDYQLRTQ
# Variants of: B1
# Assay: PCA (protein-fragment complementation assay)
# Conditions: with GLuc1-tagged μ subunit of the AP-1B complex; parent: 1; read off a plot
row,Variant,ratio to parent
1,chain 1 L202A L217A,0.55
2,chain 1 E200A,0.97
3,chain 1 L217A,0.76
4,chain 1 L203A,0.67
5,chain 1 L202A,0.8
6,chain 1 L202A L203A L216A L217A,0.47
7,chain 1 L216A,0.77
8,chain 1 D207A,0.79

# Variants of: B2
# Assay: PCA (protein-fragment complementation assay)
# Conditions: with GLuc1-tagged μ subunit of the AP-1A complex; parent: 1; read off a plot
row,Variant,ratio to parent
1,chain 1 L203A,0.67
2,chain 1 L202A L203A L216A L217A,0.33
3,chain 1 L217A,0.68
4,chain 1 D207A,0.74
5,chain 1 L216A,0.56
6,chain 1 L202A L217A,0.38
7,chain 1 L202A,0.71
8,chain 1 E200A,1
